In patent US20050142634A1, “Novel modulator of non-genomic activity of nuclear receptors (mnar) and uses thereof” (Wyeth, priority 2001, published 2005):

B1: mutant 9: MNAR mutant, C-terminal portion aa 595-1131 (protein, listed as Homo sapiens)
chain: PPPLACALQAFSLGQREDSLEVSSFCSEALVTCAALTHPRVPPLQPMGPTCPTPAPVPPPEAPSPFRAPPFHPPGPMPSVGSMPSAGPMPSAGPMPSAGPVPSARPGPPTTANHLGLSVPGLVSVPPRLLPGPENHRAGSNEDPILAPSGTPPPTIPPDETFGGRVPRPAFVHYDKEEASDVEISLESDSDDSVVIVPEGLPPLPPPPPSGATPPPIAPTGPPTASPPVPAKEEPEELPAAPGPLPPPPPPPPPVPGPVTLPPPQLVPEGTPGGGGPPALEEDLTVININSSDEEEEEEEEGEEEEEEEEEEEEDFEEEEEDEEEYFEEEEEEEEEFEEEFEEEEGELEEEEEEEDEEEEEELEEVEDLEFGTAGGEVEEGAPPPPTLPPALPPPESPPKVQPEPEPEPGLLLEVEEPGTEEERGADTAPTLAPEALPSQGEVEREGESPAAGPPPQELVEEEPSAPPTLLEEEPEDGSDKVQPPPETPAEEEMETETEAEALQEKEQDDTAAMLADFIDCPPDDEKPPPPSEPDS
B2: mutant 10: MNAR mutant aa 595-962 (protein, listed as Homo sapiens)
chain: PPPLACALQAFSLGQREDSLEVSSFCSEALVTCAALTHPRVPPLQPMGPTCPTPAPVPPPEAPSPFRAPPFHPPGPMPSVGSMPSAGPMPSAGPMPSAGPVPSARPGPPTTANHLGLSVPGLVSVPPRLLPGPENHRAGSNEDPILAPSGTPPPTIPPDETFGGRVPRPAFVHYDKEEASDVEISLESDSDDSVVIVPEGLPPLPPPPPSGATPPPIAPTGPPTASPPVPAKEEPEELPAAPGPLPPPPPPPPPVPGPVTLPPPQLVPEGTPGGGGPPALEEDLTVININSSDEEEEEEEEGEEEEEEEEEEEEDFEEEEEDEEEYFEEEEEEEEEFEEEFEEEEGELEEEEEEEDEEEEEELEEVED
B3: mutant 11: MNAR mutant aa 595-887 (protein, listed as Homo sapiens)
chain: PPPLACALQAFSLGQREDSLEVSSFCSEALVTCAALTHPRVPPLQPMGPTCPTPAPVPPPEAPSPFRAPPFHPPGPMPSVGSMPSAGPMPSAGPMPSAGPVPSARPGPPTTANHLGLSVPGLVSVPPRLLPGPENHRAGSNEDPILAPSGTPPPTIPPDETFGGRVPRPAFVHYDKEEASDVEISLESDSDDSVVIVPEGLPPLPPPPPSGATPPPIAPTGPPTASPPVPAKEEPEELPAAPGPLPPPPPPPPPVPGPVTLPPPQLVPEGTPGGGGPPALEEDLTVININSSD

What follows are molecules tested on ER (assay: MNAR structural-functional analysis, ER-stimulated transcription in HepG2 cells). Settings: MNAR deletion mutants transfected into HepG2 cells.
Format: cell-based
Description: To delineate the regions of MNAR that are responsible for interaction with estrogen receptor and c-Src tyrosine kinase, we performed functional evaluation of MNAR deletion mutants (FIG. 12). A series of C-terminal truncations of MNAR was generated using specially designed oligonucleotides, by amplifying appropriate fragments and cloning them into appropriate expression vectors. These mutants were tested for their abilities to enhance ER-stimulated transcription when transfected into HepG2 cells.
At the C-terminus, MNAR contains a region rich in both proline and glutamic acid. To delineate the regions on MNAR responsible for interaction with estrogen receptors and c-src tyrosine kinase, a functional evaluation of MNAR deletion mutants was performed (FIG. 12). A series of C-terminal truncations of MNAR was generated using specially designed oligonucleotides, by amplifying appropriate fragments and cloning them into appropriate expression vectors. These mutants were tested for their abilities to enhance ER-stimulated transcription when transfected into HepG2 cells.

Row | Molecule | ability to enhance ER-stimulated transcription
1 | B1 | inactive
2 | B2 | inactive
3 | B3 | inactive
